Source: patent US20170210777A1

Molecular target: human IgG antibody (human)
Assay: SPR (Biacore), ligand immobilised on CM5

**Q.** Which koff does the source give for “modified protein A (manufactured by Sino Biological Inc.)” here?
**A.** 0.00032 s⁻¹
